± gives the uncertainty stated by the source.

A short description of the data set: amyloid nucleation score (Sup35N fusion, yeast selection) (log enrichment); library NNK1; higher = more nucleation; inactive = no reads after selection. The procedure, abridged:
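Growth for 7 days at 30°C on medium lacking adenine and uracil followed a 24-hour induction with 100 μM copper sulfate of psi-negative yeast expressing peptides of 20 random codons fused to Sup35N. Input and output plasmid inserts were sequenced with Illumina, and sequences with under 100 input reads were excluded. Nucleation score is the DiMSum log enrichment of output over input reads, centred on the mode score of non-aggregating sequences.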
With CFTYSARH, the amyloid nucleation score is 3.67 ± 0.11. On to FPSNPYPNLPNMDVKRSNAF, for which the amyloid nucleation score entry was “inactive”. Substance RIVEGWDTLSFLFRKGCEFF came in with an amyloid nucleation score of 1.2 ± 0.56. Under VSIGIISII stands -0.663 ± 1.6; under FGQSQPCDVTRENFCKEACN, -0.028 ± 0.9; under YRCTLASNRLRFLWITSNVR, -0.085 ± 0.58. For the substance RRRSLLLVWRMTVGWVWGWD, the amyloid nucleation score was -0.215 ± 0.62. In turn, NFELLPYLSLNWSHFFCSCF displayed an amyloid nucleation score of 6.56 ± 0.061. Substance WLVGKTCNLYDLVLASLSNG had an amyloid nucleation score of -0.704 ± 0.4.

The substance INTSYIEEHYELVGFVHWNV yielded an amyloid nucleation score of -0.449 ± 0.79.

Regarding LWLRLRFVCKYRV, the amyloid nucleation score stood at 1.9 ± 0.59. In turn, TGLSSYM came in with an amyloid nucleation score of -0.701 ± 0.97. In the case of YTVPQSLSLLCSAYLILLDA, the amyloid nucleation score is 0.561 ± 0.43. In turn, NKCKKYGYLFRLSGYEGHNL returned an amyloid nucleation score of 5.54 ± 0.091. The result for ALGVHR reads 1.76 ± 0.61. Turning to SRRKQIVGKVSVFFEASRFV, the amyloid nucleation score was -1.06 ± 1.2. As for KVLNVCRL, the amyloid nucleation score result is “inactive”. Under DKAFLWQFEELVAA stands -0.331 ± 0.72; under SPKSLLKRLWEYARKNTVML, 0.151 ± 0.49. Substance GCEFWSYTLTLRGKNACNKL displayed an amyloid nucleation score of -0.234 ± 0.42. The substance QTVGKVDVVDCLVLVVRLTI came in with an amyloid nucleation score of -0.003 ± 0.57. The substance ISRVIFLR had an amyloid nucleation score of 1.41 ± 0.78. The result for RWCVVSEKTFCINYTRLSFA reads 0.888 ± 0.23; that for SLDLFSIKATRSDWSGFLRT, -0.613 ± 0.94; that for FLQFF, -0.656 ± 0.47. Under LLLVCMHGSFAMYMPLNNRW stands 0.922 ± 0.93; under TDAPP, 0.126 ± 1.1. Substance TRSYNWARCTLSGVALGQGQ showed an amyloid nucleation score of -0.724 ± 2.4. With DWNEEACV, the amyloid nucleation score was found to be 0.432 ± 0.57. Under SMRLGKTIAVLVINEHGMLQ stands 2.17 ± 0.11; under FNYEGYNMSCCGYRQFMEFG, 5.87 ± 0.073.

The substance EHGERAQGPISGMLGRKCIE had an amyloid nucleation score of 1.04 ± 0.98. Substance ENPWFMCICYGANRVHVCNG came in with an amyloid nucleation score of 0.539 ± 0.33.

As for DERNACLSSFGVNLRLIKLS, the amyloid nucleation score is -0.002 ± 0.4. Under ACEKLQVNW stands 0.329 ± 0.35; under ASNTANIPYGII, 0.489 ± 0.32.

On to LANLAVHLLGQGETCIQMFL, for which the amyloid nucleation score turned out to be 1.76 ± 0.4.

Consider FFGGNSAVVVIRWMSRSGHW, for which the amyloid nucleation score was 0.489 ± 0.64.

Take GQMGPMKREDGVLFVVTREN: the amyloid nucleation score was -0.255 ± 1.1.

On to QDFSVTPHGV, for which the amyloid nucleation score stood at 0.228 ± 0.62. The result for DSRCHSSSGDRPTLAVYT reads -0.198 ± 1.7; that for LFLFLRMLTFVTCLIMRLRV, -1.73 ± 2.4. Regarding DNWSMDVLFLWMASLGNKYR, the amyloid nucleation score result is “inactive”. The substance IYFVIGYVNVCWGSATEDMT came in with an amyloid nucleation score of 5.46 ± 0.084. Substance SFVFLRNL displayed an amyloid nucleation score of 0.142 ± 0.32. NIHVSKVGGLGTNLCYARNA returned an amyloid nucleation score of 1.77 ± 0.51. As for EPFGLGFRRNDLSYANRVGS, the amyloid nucleation score is -0.887 ± 1.3. For FTYIISRISFMRDWVF, the amyloid nucleation score is -0.257 ± 1.4.

The substance LFVSNMC had an amyloid nucleation score of -1.47 ± 0.91. Substance RIAFFS displayed an amyloid nucleation score of 1.25 ± 0.57.

Regarding INFQNDELWVLETIGFHTYP, the amyloid nucleation score is -0.256 ± 0.49. Under CVFVRVF stands “inactive”; under PNQVYGTAFCGDEKNRMRWK, 4.6 ± 0.079; under FHGSGESVNTDTMLTLYISV, -0.157 ± 0.54. The result for LINKNSSSAFCVMLGHYWVR reads -1.03 ± 0.66; that for FTSSIMEFNESQWVNFTFIW, 4.42 ± 0.053. Under ILAIKWTSVWCMESDFPIEV stands -0.402 ± 0.58; under RRFEWFAGHCGIVDLPLGVG, 0.568 ± 0.97.
